Results reported in the supplement of paper PMC9112550, “Optimization of the antimicrobial peptide Bac7 by deep mutational scanning” (BMC Biology, 2022).

Test system: Escherichia coli TOP10
Test: shrunken log2 fold change of peptide-encoding DNA abundance (4.5 h post-induction vs induction); higher = less antimicrobial activity (less host growth inhibition)
Conditions: time post-induction: 4.5 h; library: site-saturation at positions 5, 18, 19, 20
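Note: peptides expressed intracellularly from a pBAD plasmid library in pooled LB shake-flask culture, induced with 0.3% L-arabinose, DNA abundance read by NGS, three biological replicates, DESeq2 with apeglm shrinkage.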

Sequence: RRIRWRPPRLPRPRPRPNAMPRP
- shrunken log2 fold change: 0.123

Sequence: RRIRPRPPRLPRPRPRPTIWPRP
- shrunken log2 fold change: 0.349

Sequence: RRIRYRPPRLPRPRPRPEMQPRP
- shrunken log2 fold change: 0.057

Sequence: RRIRKRPPRLPRPRPRPKVDPRP
- shrunken log2 fold change: 0.00437

Sequence: RRIRLRPPRLPRPRPRPRVDPRP
- shrunken log2 fold change: -0.0238

Sequence: RRIRLRPPRLPRPRPRPMTDPRP
- shrunken log2 fold change: -0.189

Sequence: RRIRIRPPRLPRPRPRPFNEPRP
- shrunken log2 fold change: -0.331

Sequence: RRIRIRPPRLPRPRPRPSEYPRP
- shrunken log2 fold change: -0.0435

Sequence: RRIRMRPPRLPRPRPRPAHFPRP
- shrunken log2 fold change: 0.152

Sequence: RRIRERPPRLPRPRPRPTWPPRP
- shrunken log2 fold change: 0.219

Sequence: RRIRSRPPRLPRPRPRPDHWPRP
- shrunken log2 fold change: -0.0678

Sequence: RRIRFRPPRLPRPRPRPIQRPRP
- shrunken log2 fold change: -0.107

Sequence: RRIRVRPPRLPRPRPRPNCFPRP
- shrunken log2 fold change: -0.158

Sequence: RRIRYRPPRLPRPRPRPEYKPRP
- shrunken log2 fold change: -0.856

Sequence: RRIRYRPPRLPRPRPRPHPCPRP
- shrunken log2 fold change: -0.125

Sequence: RRIRARPPRLPRPRPRPADNPRP
- shrunken log2 fold change: 0.383

Sequence: RRIRWRPPRLPRPRPRPQNKPRP
- shrunken log2 fold change: -0.536

Sequence: RRIRPRPPRLPRPRPRPFVVPRP
- shrunken log2 fold change: -0.233

Sequence: RRIRGRPPRLPRPRPRPKIDPRP
- shrunken log2 fold change: 0.372

Sequence: RRIRGRPPRLPRPRPRPFGEPRP
- shrunken log2 fold change: 0.793

Sequence: RRIRKRPPRLPRPRPRPQAVPRP
- shrunken log2 fold change: 0.0562

Sequence: RRIRRRPPRLPRPRPRPGDNPRP
- shrunken log2 fold change: 0.169

Sequence: RRIRPRPPRLPRPRPRPWAAPRP
- shrunken log2 fold change: 0.126

Sequence: RRIRWRPPRLPRPRPRPLSKPRP
- shrunken log2 fold change: -0.0363

Sequence: RRIRVRPPRLPRPRPRPSAAPRP
- shrunken log2 fold change: 0.298

Sequence: RRIRCRPPRLPRPRPRPDFHPRP
- shrunken log2 fold change: -0.685

Sequence: RRIRHRPPRLPRPRPRPLDSPRP
- shrunken log2 fold change: -0.448

Sequence: RRIRLRPPRLPRPRPRPMKPPRP
- shrunken log2 fold change: -0.0332

Sequence: RRIRARPPRLPRPRPRPLQNPRP
- shrunken log2 fold change: 0.698

Sequence: RRIRWRPPRLPRPRPRPAQKPRP
- shrunken log2 fold change: 0.157

Sequence: RRIRRRPPRLPRPRPRPKHYPRP
- shrunken log2 fold change: 0.227

Sequence: RRIRFRPPRLPRPRPRPFDPPRP
- shrunken log2 fold change: -0.135

Sequence: RRIRKRPPRLPRPRPRPFMMPRP
- shrunken log2 fold change: -0.1

Sequence: RRIRHRPPRLPRPRPRPIEPPRP
- shrunken log2 fold change: -0.133

Sequence: RRIRLRPPRLPRPRPRPNKIPRP
- shrunken log2 fold change: -0.243

Sequence: RRIRERPPRLPRPRPRPHIHPRP
- shrunken log2 fold change: -0.135

Sequence: RRIRMRPPRLPRPRPRPCRNPRP
- shrunken log2 fold change: -0.326

Sequence: RRIRMRPPRLPRPRPRPKDSPRP
- shrunken log2 fold change: 1.66

Sequence: RRIRCRPPRLPRPRPRPMPGPRP
- shrunken log2 fold change: 0.0112

Sequence: RRIRHRPPRLPRPRPRPRRDPRP
- shrunken log2 fold change: -0.02

Sequence: RRIRFRPPRLPRPRPRPCFKPRP
- shrunken log2 fold change: -0.426

Sequence: RRIRQRPPRLPRPRPRPEETPRP
- shrunken log2 fold change: -0.0125

Sequence: RRIRARPPRLPRPRPRPEWSPRP
- shrunken log2 fold change: 0.949

Sequence: RRIRYRPPRLPRPRPRPMSQPRP
- shrunken log2 fold change: -0.0802

Sequence: RRIRARPPRLPRPRPRPEHYPRP
- shrunken log2 fold change: 0.068

Sequence: RRIRHRPPRLPRPRPRPARGPRP
- shrunken log2 fold change: 0.319

Sequence: RRIRCRPPRLPRPRPRPFSNPRP
- shrunken log2 fold change: -0.117

Sequence: RRIRARPPRLPRPRPRPVTRPRP
- shrunken log2 fold change: 0.35

Sequence: RRIRKRPPRLPRPRPRPQSCPRP
- shrunken log2 fold change: -0.0373

Sequence: RRIRWRPPRLPRPRPRPVFMPRP
- shrunken log2 fold change: -0.0684

Sequence: RRIRTRPPRLPRPRPRPVHGPRP
- shrunken log2 fold change: -0.0733

Sequence: RRIRPRPPRLPRPRPRPGCVPRP
- shrunken log2 fold change: 0.447

Sequence: RRIRHRPPRLPRPRPRPNSYPRP
- shrunken log2 fold change: 0.118

Sequence: RRIRHRPPRLPRPRPRPTSRPRP
- shrunken log2 fold change: 0.0698

Sequence: RRIRSRPPRLPRPRPRPGGDPRP
- shrunken log2 fold change: 0.514

Sequence: RRIRGRPPRLPRPRPRPCFAPRP
- shrunken log2 fold change: 0.789

Sequence: RRIRVRPPRLPRPRPRPPQSPRP
- shrunken log2 fold change: 0.249

Sequence: RRIRSRPPRLPRPRPRPLDPPRP
- shrunken log2 fold change: -0.0203

Sequence: RRIRSRPPRLPRPRPRPDNQPRP
- shrunken log2 fold change: -0.568

Sequence: RRIRWRPPRLPRPRPRPTMGPRP
- shrunken log2 fold change: 0.272

Sequence: RRIRARPPRLPRPRPRPFLRPRP
- shrunken log2 fold change: 0.0973

Sequence: RRIRLRPPRLPRPRPRPEDGPRP
- shrunken log2 fold change: -0.0468

Sequence: RRIRVRPPRLPRPRPRPRTPPRP
- shrunken log2 fold change: 0.555

Sequence: RRIRYRPPRLPRPRPRPLDQPRP
- shrunken log2 fold change: -0.169

Sequence: RRIRWRPPRLPRPRPRPATRPRP
- shrunken log2 fold change: 0.38

Sequence: RRIRERPPRLPRPRPRPIETPRP
- shrunken log2 fold change: -0.00369

Sequence: RRIRSRPPRLPRPRPRPAASPRP
- shrunken log2 fold change: -0.0449

Sequence: RRIRNRPPRLPRPRPRPHAKPRP
- shrunken log2 fold change: -0.0658

Sequence: RRIRNRPPRLPRPRPRPCVPPRP
- shrunken log2 fold change: -0.00911

Sequence: RRIRMRPPRLPRPRPRPWESPRP
- shrunken log2 fold change: 0.109

Sequence: RRIRPRPPRLPRPRPRPHHDPRP
- shrunken log2 fold change: -0.266

Sequence: RRIRYRPPRLPRPRPRPRLAPRP
- shrunken log2 fold change: 0.299

Sequence: RRIRWRPPRLPRPRPRPQGFPRP
- shrunken log2 fold change: -0.0818

Sequence: RRIRKRPPRLPRPRPRPLGCPRP
- shrunken log2 fold change: 0.659

Sequence: RRIRIRPPRLPRPRPRPELTPRP
- shrunken log2 fold change: -0.0457

Sequence: RRIRNRPPRLPRPRPRPLVCPRP
- shrunken log2 fold change: -0.201

Sequence: RRIRGRPPRLPRPRPRPFEPPRP
- shrunken log2 fold change: 0.267

Sequence: RRIRMRPPRLPRPRPRPFPQPRP
- shrunken log2 fold change: 0.103

Sequence: RRIRGRPPRLPRPRPRPERYPRP
- shrunken log2 fold change: -0.107

Sequence: RRIRERPPRLPRPRPRPVWYPRP
- shrunken log2 fold change: -0.383

Sequence: RRIRGRPPRLPRPRPRPQWSPRP
- shrunken log2 fold change: 0.157

Sequence: RRIRERPPRLPRPRPRPALAPRP
- shrunken log2 fold change: 0.432

Sequence: RRIRTRPPRLPRPRPRPIVGPRP
- shrunken log2 fold change: -0.0587

Sequence: RRIRPRPPRLPRPRPRPTQRPRP
- shrunken log2 fold change: 0.369

Sequence: RRIRMRPPRLPRPRPRPEMTPRP
- shrunken log2 fold change: -0.00169

Sequence: RRIRFRPPRLPRPRPRPDWNPRP
- shrunken log2 fold change: -0.287

Sequence: RRIRSRPPRLPRPRPRPYNTPRP
- shrunken log2 fold change: -1.1

Sequence: RRIRMRPPRLPRPRPRPSNHPRP
- shrunken log2 fold change: 0.00558

Sequence: RRIRPRPPRLPRPRPRPNVEPRP
- shrunken log2 fold change: 0.0775

Sequence: RRIRHRPPRLPRPRPRPVTEPRP
- shrunken log2 fold change: -0.0954

Sequence: RRIRFRPPRLPRPRPRPQPCPRP
- shrunken log2 fold change: 0.078

Sequence: RRIRMRPPRLPRPRPRPGTLPRP
- shrunken log2 fold change: -0.02

Sequence: RRIRKRPPRLPRPRPRPTHMPRP
- shrunken log2 fold change: 0.37

Sequence: RRIRDRPPRLPRPRPRPPNEPRP
- shrunken log2 fold change: -0.0231

Sequence: RRIRHRPPRLPRPRPRPQNNPRP
- shrunken log2 fold change: -0.731

Sequence: RRIRNRPPRLPRPRPRPWDRPRP
- shrunken log2 fold change: -0.0515

Sequence: RRIRQRPPRLPRPRPRPVEMPRP
- shrunken log2 fold change: -0.101

Sequence: RRIRLRPPRLPRPRPRPPPFPRP
- shrunken log2 fold change: 0.791

Sequence: RRIRPRPPRLPRPRPRPVQLPRP
- shrunken log2 fold change: -0.135

Sequence: RRIRLRPPRLPRPRPRPLQYPRP
- shrunken log2 fold change: -0.316

Sequence: RRIRHRPPRLPRPRPRPVWKPRP
- shrunken log2 fold change: -0.00992

Sequence: RRIRRRPPRLPRPRPRPHPQPRP
- shrunken log2 fold change: 0.268

Sequence: RRIRFRPPRLPRPRPRPEKSPRP
- shrunken log2 fold change: -0.101

Sequence: RRIRVRPPRLPRPRPRPVDCPRP
- shrunken log2 fold change: 0.014

Sequence: RRIRFRPPRLPRPRPRPDNQPRP
- shrunken log2 fold change: -0.834

Sequence: RRIRDRPPRLPRPRPRPRVFPRP
- shrunken log2 fold change: 0.485

Sequence: RRIRARPPRLPRPRPRPAFPPRP
- shrunken log2 fold change: 0.532

Sequence: RRIRPRPPRLPRPRPRPIGQPRP
- shrunken log2 fold change: 0.121

Sequence: RRIRNRPPRLPRPRPRPMCYPRP
- shrunken log2 fold change: -0.0198
